For assay [1], the target named is F-actin (rabbit) (UniProt P68135).
Assay [2] has the same target. This is another data set of the same source.
Assay [3] has the same target. This is another data set of the same source.
The target is the same in assay [4]. This is another data set of the same source.
Assay [5] has as its target Regulated thin filaments (TRITC-actin with skeletal tropomyosin and troponin) (rabbit | not stated) (UniProt P68135).
The target of assay [6] is F-actin (rabbit) (UniProt P68135). This is another data set of the same source.

On to “Skeletal muscle myosin (from UniProt Q28641 1-1938) (complex)”, for which, in assay [1], the KM: N at half-maximal V(N), in vitro motility assay, control without (-)-blebbistatin (Figure 2D) was determined as 16.1; the KM: N at half-maximal V(N), in vitro motility assay, with 10 μM (-)-blebbistatin (Figure 2D) was found to be 13.3; the KM: N at half-maximal V(N), in vitro motility assay, with 50 μM (-)-blebbistatin (Figure 2D) was 6.4. In assay [2], the inhibition of actin-activated ATPase activity (N = 5, 1.0 μM actin; v from 0.59 to 0.26 μM Pi/min) by the load of 1.0 μg/ml α-actinin on the motility surface is 55%. Moreover, in assay [3], the KM: N at half-maximal V(N), in vitro motility assay, control without α-actinin (Figure 5A) is 19. Moreover, in assay [4], the KM for F(N): N at half-maximal V(N) against a mechanical load of 0.5 μg/ml α-actinin on the motility surface is 16; the KM for F(N): N at half-maximal V(N) against a mechanical load of 1.0 μg/ml α-actinin on the motility surface turned out to be 38; the KM for V: N (myosin per μm actin; N equals μg/ml myosin incubated) at half-maximal actin sliding velocity V(N), in vitro motility assay, 50 mM KCl, 30 °C turned out to be 16; the KM for V: N at half-maximal actin sliding velocity V(N), in vitro motility assay, 100 mM KCl, 30 °C was 17. Also, in assay [4], the KM for v: N at half-maximal actin-activated ATPase activity v(N), measured in a motility flow cell, 50 mM KCl, 30 °C was 46 and the KM for v: N at half-maximal actin-activated ATPase activity v(N), measured in a motility flow cell, 100 mM KCl, 30 °C was 23. In assay [5], this substance gave a pseudo KM for pCa50: half the N at which the pCa50 of thin filament sliding velocity saturates, in vitro motility assay, 50 mM KCl of 24 and a pseudo KM for pCa50: half the N at which the pCa50 of thin filament sliding velocity saturates, in vitro motility assay, 100 mM KCl of 26. In assay [6], the actin activation of the ATPase activity of surface-bound myosin at low N in a motility flow cell (0.15 μM actin, Figure 3) came to 4 fold.

These data come from article PMC8560993.
